According to patent US20230071609A1 (Genentech, published 2023):

Target: T1, gD-MAD-SRA-ID-GPI (construct d) (human, UniProt O14791 238-398, C-terminal GPI anchor)
T1 sequence: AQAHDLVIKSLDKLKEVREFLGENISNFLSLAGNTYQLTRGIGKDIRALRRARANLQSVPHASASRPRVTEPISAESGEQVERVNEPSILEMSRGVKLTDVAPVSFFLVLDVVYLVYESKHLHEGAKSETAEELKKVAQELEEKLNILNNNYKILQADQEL
Assay: flow cytometry, live CHO cells; 3.7D6 is the representative PFD antibody
Procedure: Stably transfected live (not fixed or permeabilized) CHO cells expressing the gD-iAPOL1-GPI constructs indicated in FIGS. 1A-1E after induction with 5 μg/ml dox for 48 h, showing differential antibody binding at 5 μg/ml. […] White histograms are Alexa488 anti-mouse or anti-rabbit secondaries only; grey histograms are the anti-APOL1 signals. A representative histogram for each category is shown: 3.7D6 for PFD; 3.3A8 for C-terminus of MAD, 3.5H9 for N-terminus of MAD; 3.1C1 for SRA-ID; 3.2D4 for multi-domain; 3.3F7 for conformational and 3.5B10 for FACS-negative (FACS-ve). The prefix 3 in the name of the antibodies denotes murine monoclonals from Method #3 (as shown in Example 1 below); other antibodies (not illustrated here) starting with the number 4 are murine monoclonals derived from mice additionally boosted with SRA-ID protein; and prefix 5-named antibodies are rabbit monoclonals from Method #5 (Table 2A; and Example 2). […] The Sigma polyclonal (HPA018885, raised to aa 263-387) and the Epitomics rabbit monoclonal (EPR2907(2), raised to an undisclosed peptide) are SRA-ID binders. […]
Cells were harvested with 5 mM EDTA in PBS, washed once with growth media and twice with PBS. […] Signals were read in a FACSCalibur3 (Becton Dickinson), with the exception of FIG. 8A and FIG. 14, which used a FACSCelesta, and data was analyzed using FlowJo v8.4.5.

B1: antibody 3.7D6 (antibody, V domains shown)
VH: QIQLVQSGPDLKKPGETVKISCRTSGYAFTNYGVNWVKQAPGKGLKWMGWINTNTGQTTYAEEFRGRFAISLETSASTAFLTISNLKNEDSATYFCARLIYDGDYISSDFWGQGTTLTVSS
VL: DIQMTQSPDSLSASVGETVTITCGASENIYGALNWYQRKQGKSPQLLIYGATNLADGMSSRFSGSRSGRQYSLKISSLHPDDVATYYCQNALSMPYTFGGGTKLEIKR
notes: Mouse mAb, cloned as murine IgG2a LALAPG; those versions are not written separately; also called PFD antibody 3.7D6
- binding result: no binding (tested: 5 µg/ml)
